Test results taken from the supplement of paper PMC10065799, “High-throughput profiling of sequence recognition by tyrosine kinases and SH2 domains using bacterial peptide display” (eLife, 2023).

Legend:
c-Src SH2 = assay: SH2 binding enrichment of the phosphorylated peptide, bacterial display (enrichment ratio); higher = better substrate or ligand; peptides without Tyr show the background
SHP2-C SH2 = assay: as above
Grb2 SH2 = Grb2 SH2 (UniProt P62993); assay: as above
Fyn = Fyn (UniProt P06241); assay: phosphorylation enrichment, bacterial display (enrichment ratio); higher = better substrate or ligand; peptides without Tyr show the background
MERTK = MERTK (UniProt Q12866); assay: as above
Jak2 = Jak2 (UniProt O60674); assay: as above
c-Src = assay: as above
EPHB1 = EPHB1 (UniProt P54762); assay: as above
c-Abl (mouse) = assay: as above
Hck = Hck (UniProt P08631); assay: as above
FGFR3 = FGFR3 (UniProt P22607); assay: as above
EPHB2 = EPHB2 (UniProt P29323); assay: as above
FGFR1 = FGFR1 (UniProt P11362); assay: as above
AncSZ = assay: as above
Fer (mouse) = assay: as above
Fes = Fes (UniProt P07332); assay: as above
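For SH2 binding enrichment of the phosphorylated peptide, bacterial display in this document: peptide library displayed on the E. coli surface as eCPX fusions, selected cells deep-sequenced, score is each peptide's frequency after selection divided by its frequency in the input.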
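For phosphorylation enrichment, bacterial display in this document: 11-residue human phosphosite peptides and single-mutation variants displayed on the E. coli surface, counted by deep sequencing, each peptide's frequency after selection divided by its frequency in the unselected input library; frequency after pTyr selection over input frequency; kinase dosed for 20-30% of maximal phosphorylation in three min.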

Chain of Hck (P08631 whole entry, looked up): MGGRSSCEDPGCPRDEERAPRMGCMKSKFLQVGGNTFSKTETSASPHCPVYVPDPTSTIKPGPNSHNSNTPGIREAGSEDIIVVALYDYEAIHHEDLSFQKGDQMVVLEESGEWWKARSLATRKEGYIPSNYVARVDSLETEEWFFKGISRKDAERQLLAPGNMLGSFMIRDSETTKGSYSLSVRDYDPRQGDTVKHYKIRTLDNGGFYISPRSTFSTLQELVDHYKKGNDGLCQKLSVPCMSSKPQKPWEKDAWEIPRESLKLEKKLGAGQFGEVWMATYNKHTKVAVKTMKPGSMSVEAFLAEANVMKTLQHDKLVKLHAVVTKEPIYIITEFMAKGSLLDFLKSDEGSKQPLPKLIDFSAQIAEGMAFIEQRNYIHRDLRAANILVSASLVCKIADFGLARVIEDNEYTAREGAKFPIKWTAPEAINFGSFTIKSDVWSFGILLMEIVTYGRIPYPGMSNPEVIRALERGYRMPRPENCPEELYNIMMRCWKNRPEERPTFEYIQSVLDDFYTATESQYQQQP
Chain of FGFR1 (P11362 whole entry, looked up): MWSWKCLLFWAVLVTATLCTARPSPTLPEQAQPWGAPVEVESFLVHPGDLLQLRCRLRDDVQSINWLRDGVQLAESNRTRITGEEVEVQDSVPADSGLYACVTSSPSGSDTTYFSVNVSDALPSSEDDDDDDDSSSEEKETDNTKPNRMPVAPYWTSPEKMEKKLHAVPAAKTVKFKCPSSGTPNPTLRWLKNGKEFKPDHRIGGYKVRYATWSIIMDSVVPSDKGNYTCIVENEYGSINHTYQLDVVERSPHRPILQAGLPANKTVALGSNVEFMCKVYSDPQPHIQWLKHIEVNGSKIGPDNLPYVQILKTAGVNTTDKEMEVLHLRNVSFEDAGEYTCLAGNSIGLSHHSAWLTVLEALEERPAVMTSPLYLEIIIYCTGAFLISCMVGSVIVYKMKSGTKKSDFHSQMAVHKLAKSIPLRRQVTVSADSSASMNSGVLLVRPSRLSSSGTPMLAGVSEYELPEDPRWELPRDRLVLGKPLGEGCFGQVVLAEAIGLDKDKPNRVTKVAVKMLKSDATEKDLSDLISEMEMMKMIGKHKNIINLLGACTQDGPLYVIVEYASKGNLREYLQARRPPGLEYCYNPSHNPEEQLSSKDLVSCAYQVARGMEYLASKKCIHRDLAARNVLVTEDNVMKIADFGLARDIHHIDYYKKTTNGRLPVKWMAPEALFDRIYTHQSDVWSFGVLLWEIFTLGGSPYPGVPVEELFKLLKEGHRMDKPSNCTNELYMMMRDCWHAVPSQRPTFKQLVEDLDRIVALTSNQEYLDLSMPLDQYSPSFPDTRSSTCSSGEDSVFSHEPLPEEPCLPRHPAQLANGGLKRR
Chain of Jak2 (O60674 whole entry, looked up): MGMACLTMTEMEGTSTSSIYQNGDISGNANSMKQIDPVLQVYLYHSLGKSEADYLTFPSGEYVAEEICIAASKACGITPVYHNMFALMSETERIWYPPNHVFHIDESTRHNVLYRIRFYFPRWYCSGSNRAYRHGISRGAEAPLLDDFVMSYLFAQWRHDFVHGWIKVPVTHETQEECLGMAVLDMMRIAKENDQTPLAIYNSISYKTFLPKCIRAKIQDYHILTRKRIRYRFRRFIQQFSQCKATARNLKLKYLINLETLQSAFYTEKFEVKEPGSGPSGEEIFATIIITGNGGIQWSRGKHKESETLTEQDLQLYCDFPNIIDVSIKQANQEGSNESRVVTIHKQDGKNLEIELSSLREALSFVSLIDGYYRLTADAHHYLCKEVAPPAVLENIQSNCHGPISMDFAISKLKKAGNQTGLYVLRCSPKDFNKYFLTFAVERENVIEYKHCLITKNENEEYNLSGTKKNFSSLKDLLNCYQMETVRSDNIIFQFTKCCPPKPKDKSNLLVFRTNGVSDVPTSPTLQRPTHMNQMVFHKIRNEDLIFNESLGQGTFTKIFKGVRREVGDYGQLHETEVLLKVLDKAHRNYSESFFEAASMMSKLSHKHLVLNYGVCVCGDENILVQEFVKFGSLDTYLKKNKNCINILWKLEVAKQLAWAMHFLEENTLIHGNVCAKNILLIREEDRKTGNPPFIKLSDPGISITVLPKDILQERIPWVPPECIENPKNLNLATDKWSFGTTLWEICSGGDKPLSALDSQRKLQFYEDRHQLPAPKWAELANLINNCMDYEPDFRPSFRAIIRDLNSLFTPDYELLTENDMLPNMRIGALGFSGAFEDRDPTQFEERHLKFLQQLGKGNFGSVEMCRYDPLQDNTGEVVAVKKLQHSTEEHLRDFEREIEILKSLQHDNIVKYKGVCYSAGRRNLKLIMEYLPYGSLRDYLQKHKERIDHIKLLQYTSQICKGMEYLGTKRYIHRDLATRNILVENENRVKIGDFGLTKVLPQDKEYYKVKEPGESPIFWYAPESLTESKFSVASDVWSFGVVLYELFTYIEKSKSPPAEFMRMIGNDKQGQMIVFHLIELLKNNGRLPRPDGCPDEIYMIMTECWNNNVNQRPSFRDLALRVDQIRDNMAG
Chain of EPHB2 (P29323 whole entry, looked up): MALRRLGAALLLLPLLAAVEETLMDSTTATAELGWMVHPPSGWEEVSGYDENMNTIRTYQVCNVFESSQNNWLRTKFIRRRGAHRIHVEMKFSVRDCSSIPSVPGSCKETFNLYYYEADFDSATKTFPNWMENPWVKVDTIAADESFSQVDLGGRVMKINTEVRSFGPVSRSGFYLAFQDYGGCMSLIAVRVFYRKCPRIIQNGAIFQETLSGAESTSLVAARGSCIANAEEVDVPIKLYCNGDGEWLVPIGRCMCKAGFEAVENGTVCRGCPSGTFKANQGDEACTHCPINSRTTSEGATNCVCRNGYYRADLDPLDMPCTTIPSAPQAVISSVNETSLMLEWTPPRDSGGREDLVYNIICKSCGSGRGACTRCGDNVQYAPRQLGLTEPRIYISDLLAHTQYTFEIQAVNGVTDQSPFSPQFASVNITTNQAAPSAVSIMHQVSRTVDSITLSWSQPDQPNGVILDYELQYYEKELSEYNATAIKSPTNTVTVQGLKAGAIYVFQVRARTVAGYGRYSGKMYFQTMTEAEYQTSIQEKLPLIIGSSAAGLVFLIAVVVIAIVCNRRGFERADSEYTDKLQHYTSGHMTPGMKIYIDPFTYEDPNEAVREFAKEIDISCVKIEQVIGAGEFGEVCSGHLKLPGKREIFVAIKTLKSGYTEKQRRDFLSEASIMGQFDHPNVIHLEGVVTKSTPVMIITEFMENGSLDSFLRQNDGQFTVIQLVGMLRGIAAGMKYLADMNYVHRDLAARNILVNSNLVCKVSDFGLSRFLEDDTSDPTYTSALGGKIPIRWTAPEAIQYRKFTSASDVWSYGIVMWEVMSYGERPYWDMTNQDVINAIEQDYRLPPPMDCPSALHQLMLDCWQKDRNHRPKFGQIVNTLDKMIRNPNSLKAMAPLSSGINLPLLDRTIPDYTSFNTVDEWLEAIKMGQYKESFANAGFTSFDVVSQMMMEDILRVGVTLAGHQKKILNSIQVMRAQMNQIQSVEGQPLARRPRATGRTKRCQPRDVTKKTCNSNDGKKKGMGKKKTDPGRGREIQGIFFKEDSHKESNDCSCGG
Chain of Fes (P07332 whole entry, looked up, the tested form may be a part): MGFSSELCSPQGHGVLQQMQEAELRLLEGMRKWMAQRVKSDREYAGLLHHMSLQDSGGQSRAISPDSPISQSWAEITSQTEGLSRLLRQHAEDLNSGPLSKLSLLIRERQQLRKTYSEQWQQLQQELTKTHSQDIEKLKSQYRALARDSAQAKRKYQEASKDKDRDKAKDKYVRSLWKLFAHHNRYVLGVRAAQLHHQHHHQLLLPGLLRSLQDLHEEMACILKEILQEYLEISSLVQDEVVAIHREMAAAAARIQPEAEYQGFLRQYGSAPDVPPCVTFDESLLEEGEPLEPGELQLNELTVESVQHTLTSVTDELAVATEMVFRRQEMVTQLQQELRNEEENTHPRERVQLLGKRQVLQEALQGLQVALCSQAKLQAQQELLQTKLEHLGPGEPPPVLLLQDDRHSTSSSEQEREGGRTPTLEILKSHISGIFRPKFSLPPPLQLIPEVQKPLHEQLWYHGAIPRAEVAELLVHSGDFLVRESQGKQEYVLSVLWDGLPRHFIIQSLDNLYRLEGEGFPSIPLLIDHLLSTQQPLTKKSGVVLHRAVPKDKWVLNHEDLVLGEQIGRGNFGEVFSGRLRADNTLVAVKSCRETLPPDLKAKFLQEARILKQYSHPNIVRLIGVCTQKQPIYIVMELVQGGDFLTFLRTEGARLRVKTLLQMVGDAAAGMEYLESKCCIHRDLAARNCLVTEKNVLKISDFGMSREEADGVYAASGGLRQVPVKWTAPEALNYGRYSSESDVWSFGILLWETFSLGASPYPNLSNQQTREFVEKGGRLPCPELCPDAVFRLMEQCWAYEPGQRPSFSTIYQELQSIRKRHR
Chain of Fyn (P06241 whole entry, looked up): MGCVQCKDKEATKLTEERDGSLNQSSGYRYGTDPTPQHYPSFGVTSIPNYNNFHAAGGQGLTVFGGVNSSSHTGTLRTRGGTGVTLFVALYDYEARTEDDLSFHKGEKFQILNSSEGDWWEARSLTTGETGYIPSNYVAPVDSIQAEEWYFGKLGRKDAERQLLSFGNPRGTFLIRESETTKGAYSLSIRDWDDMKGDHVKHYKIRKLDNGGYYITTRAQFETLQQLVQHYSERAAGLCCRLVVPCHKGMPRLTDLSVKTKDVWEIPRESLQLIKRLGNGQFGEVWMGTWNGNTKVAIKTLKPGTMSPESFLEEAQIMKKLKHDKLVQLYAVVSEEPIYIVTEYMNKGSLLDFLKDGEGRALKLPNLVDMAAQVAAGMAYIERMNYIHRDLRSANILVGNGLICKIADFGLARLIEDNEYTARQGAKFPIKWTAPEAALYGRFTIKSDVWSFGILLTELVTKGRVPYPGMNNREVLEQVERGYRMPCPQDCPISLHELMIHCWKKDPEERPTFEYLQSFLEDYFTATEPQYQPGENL

SH2 binding enrichment (c-Src SH2)	SH2 binding enrichment (SHP2-C SH2)	SH2 binding enrichment (Grb2 SH2)	Sequence	phosphorylation enrichment (Fyn)	phosphorylation enrichment (MERTK)	phosphorylation enrichment (Jak2)	phosphorylation enrichment (c-Src)	phosphorylation enrichment (EPHB1)	phosphorylation enrichment (c-Abl (mouse))	phosphorylation enrichment (Hck)	phosphorylation enrichment (FGFR3)	phosphorylation enrichment (EPHB2)	phosphorylation enrichment (FGFR1)	phosphorylation enrichment (AncSZ)	phosphorylation enrichment (Fer (mouse))	phosphorylation enrichment (Fes)
0.437	0.972	1.08	VERIHYIGQNE [HMOX2_Y140]	0.494	0.522	0.553	0.368	0.351	0.344	0.453	0.381	0.47	0.555	0.617	0.434	0.638
0.408	0.421	0.725	VGAKTYKMSMA [CPS1_Y309_A304V]	0.399	0.428	0.511	0.498	0.437	0.57	0.307	0.382	0.326	0.367	0.645	0.268	0.524
0.42	0.499	0.774	VGNAAYQAGPL [STK36_Y1181]	0.458	0.386	0.592	0.429	0.358	0.531	0.378	0.472	0.437	0.407	0.553	0.392	0.556
0.389	0.556	0.796	VHNLDYYKKTT [FGFR3_Y647]	0.39	0.414	0.469	0.371	0.428	0.443	0.408	0.771	0.474	0.369	0.527	0.394	0.624
0.708	0.548	0.736	VHVEVYDPPSP	0.794	0.775	1.27	0.719	0.749	0.949	0.833	0.826	0.572	0.672	1.65	0.758	1.3
0.535	0.68	0.713	VIEQSYNETWL [SLC2A4_Y56]	0.558	0.436	1.1	0.572	0.567	0.803	0.512	0.827	0.645	0.621	1.17	1.25	1.23
1.05	1.16	1.19	VIKDKYPKVRY [APTX_Y209_A212V]	0.365	0.35	0.693	0.487	0.414	0.577	0.466	0.449	0.437	0.441	0.448	0.402	0.667
1.3	1.06	4.55	VKFGAYINDFK [GLB1_Y488_N484K_YF]	0.431	0.412	1.05	0.468	0.596	0.737	0.523	0.879	0.572	0.466	0.839	0.406	1.02
0.601	0.642	0.699	VKGGAYFPVTV [MCCC2_Y145_YF]	0.396	0.692	0.807	0.386	0.372	0.522	0.431	0.602	0.444	0.713	0.703	0.419	0.601
0.715	0.8	0.955	VKGGAYYPVTV [MCCC2_Y145]	0.423	4.41	2.65	0.445	0.331	0.609	0.607	3.75	0.551	5.39	0.582	0.819	0.822
0.494	0.607	0.862	VKPENYRRQDI [VHL_Y175_L178Q]	0.344	0.379	0.469	0.365	0.274	0.465	0.309	0.4	0.367	0.343	0.475	0.304	0.504
0.456	0.695	0.824	VLTSKYLGGGG [HBA1_Y141_R142L]	0.275	0.347	0.444	0.334	0.292	0.375	0.32	0.308	0.326	0.448	0.382	0.264	0.461
0.545	0.622	0.886	VMSGPYNLKAL [IL1B_Y140_E141N]	0.596	0.507	0.959	0.758	0.534	0.643	0.473	0.556	0.475	0.569	0.888	0.508	0.765
0.589	0.803	0.834	VNFGAYINNFK [GLB1_Y488_D491N_YF]	0.463	0.362	0.662	0.391	0.566	0.535	0.523	0.689	0.635	0.535	1.03	0.579	0.912
0.426	0.388	0.829	VNLVLYLSIAK [FBXO15_Y496]	0.462	0.572	1.28	0.512	0.438	1.25	0.527	0.867	0.628	0.581	1.13	0.443	1.73
3.03	0.907	0.831	VPANRYDLLCL [FARSB_Y72]	0.469	0.514	0.873	0.487	0.58	0.773	0.458	0.725	0.654	0.493	0.808	0.486	0.985
